In patent publication US20230331827A1, “POTASSIUM CHANNEL INHIBITORS” (priority 2017, published 2023):

target: T1, human Kv1.3 (huKv1.3) (Homo sapiens, UniProt P22001); test: QPatch automated patch-clamp, CHO cells stably expressing human Kv1.3 (Examples 19-21); type: cell-based; details: huKv1.3, four-point curves of FIG. 32, Table E19; read-out: IC50
T1 construct: host or cells: CHO
Method: The effect of these KnotBodies on cells expressing human Kv1.3 (huKv1.3) channel was assessed using the QPatch automated patch-clamp platform (Sophion, Ballerup, Denmark). For the testing of Kv1.3 ion channel currents, CHO cells stably expressing human Kv1.3 (GenBank accession number NM_002232.2; cell line catalogue number CT6133, Charles River Discovery, Cleveland, USA) were subjected to a QPatch electrophysiology assay in the presence or absence of the KnotBody fusions or the antibody isotypes (negative controls). Internal and external physiological solutions were freshly prepared prior to the assay. The extracellular solution contained 145 mM NaCl, 4 mM KC1, 2 mM CaC12, 1 mM MgC12, 10 mM HEPES and 10 mM glucose; the pH was adjusted to 7.4 with NaOH; the osmolarity was ~ 305 mOsm/L. The intracellular solution contained: KF (120 mM), KC1 (20 mM), HEPES (10 mM) EGTA (10 mM); the pH was adjusted to 7.2 with KOH; osmolarity was ~ 300 mOsm/L.
(§1) A series of depolarising voltage (channel activating) pulses were used to monitor the channel currents upon adding control (extracellular solution) to define a control baseline of current activity. To these measured control currents four, ascending concentrations of KnotBodies (including KB_A12_ShK and KB_A12_KTX as previously described in Example 8) or parental antibody isotypes (control molecules) were applied to the external bathing solution. KnotBodies KB_A12 and KB_A07 (EETI-II fusions) were used as isotype controls for the testing. From a holding voltage of -80 mV a depolarising, activating voltage pulses of +30 mV were applied for 300 ms, every 10 seconds. The elicited, maximum outward current values measured during the activating step for each solution exchange period, averaged (n = 3 - 6 for each concentration applied) and plotted as concentration-response curves (see FIG. 32). From these concentration-response curves IC50 values were calculated.
For the testing of Kv1.1 and Kv1.3, CHO-S expressing huKv1.1 (described above) or CHO cells stably expressing huKv1.3 (Charles River Lab) were analysed using the QPatch electrophysiology assay in the presence or absence of the KnotBody fusions. Internal and external physiological solutions were freshly prepared prior to the assay. The extracellular solution contained 145 mM NaCl, 4 mM KC1, 2 mM CaC12, 1 mM MgC12, 10 mM HEPES and 10 mM glucose; the pH was adjusted to 7.4 with NaOH; the osmolarity was ~ 305 mOsm/L. The intracellular solution contained: KF (120 mM), KC1 (20 mM), HEPES (10 mM) EGTA (10 mM); the pH was adjusted to 7.2 with KOH; osmolarity was ~ 300 mOsm/L.
as §1, with “(including previously described” for “(including”, “KB_A12_KTX” for “KB_A12_KTX as previously”, “[…]” for “+30 mV”, “33).” for “32).”, “calculated (see Table E20).” for “calculated.”
For the testing of Kv1.1 and Kv1.3, CHO-S expressing huKv1.1 (see Example 20 and below) or CHO cells stably expressing huKv1.3 (Charles River Lab) were analysed using the QPatch electrophysiology assay in the presence or absence of the KnotBody fusions - see details in Examples 19 and 20.

T1 sequence (P22001 whole entry): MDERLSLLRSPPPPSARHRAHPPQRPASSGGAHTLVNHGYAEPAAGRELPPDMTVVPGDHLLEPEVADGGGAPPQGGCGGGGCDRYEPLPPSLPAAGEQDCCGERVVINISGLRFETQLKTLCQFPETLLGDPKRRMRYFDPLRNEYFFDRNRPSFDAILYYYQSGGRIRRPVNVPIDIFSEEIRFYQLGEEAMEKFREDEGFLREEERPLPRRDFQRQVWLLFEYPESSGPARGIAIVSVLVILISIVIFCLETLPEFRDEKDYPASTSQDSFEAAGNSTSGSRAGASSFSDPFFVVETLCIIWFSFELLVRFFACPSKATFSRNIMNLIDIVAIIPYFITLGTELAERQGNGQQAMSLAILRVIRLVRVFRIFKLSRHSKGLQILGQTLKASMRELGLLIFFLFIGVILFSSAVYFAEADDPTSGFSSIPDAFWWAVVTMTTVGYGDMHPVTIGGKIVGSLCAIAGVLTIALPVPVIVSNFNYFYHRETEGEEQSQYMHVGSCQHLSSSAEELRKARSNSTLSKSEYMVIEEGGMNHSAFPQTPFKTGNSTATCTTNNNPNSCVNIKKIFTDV

| Molecule | IC50 |
| --- | --- |
| KB_A07_HsTx1 (antibody, V domains shown) VH: EVQLVESGGGLVRPGGSLRLSCAASGFTFSSYAMSWVRQAPGKGLEWVSAISGSGGSTYYADSVKGRFTISRDNTKNSLYLQMTSLRADDTAFYYCVKDFGPGYGTGWFDYWGPGTLVTVSS VL: DIQMTQSPSSLSASVGDRVTITCRASQSISSYLNWYQQKPGKAPKLLIYAAGVASCRTPKDCADPCRKETGCPYGKCMNRKCKCNRCSRSGVPSRFSGSGSGTDFTLTISSLQPEDFATYYCQQGASPPYTFGQGTKVEIKR | 4.7 nM |
| KB_A12_ADWX1: ADWX-1 in VL CDR2 of KB_A12, IgG (antibody, V domains shown) VH: EVQLVESGGGLVRPGGSLRLSCAASGFTFSSYAMSWVRQAPGKGLEWVSAISGSGGSTYYADSVKGRFTISRDNTKNSLYLQMTSLRADDTAFYYCVKDFGPGYGTGWFDYWGPGTLVTVSS VL: QSVLTQPPSVSEAPRQRVTITCSGSSSNIGNNAVNWYQQLPGKAPKLLIYAAGRVGINVKCKHSRQCLKPCKDAGMRFGKCTNGKCHCTPKANSGVSDRFSAAKSGTSASLAINGLRSEDEADYYCAAWDDSLNGYVFGTGTKLTVLG | 270 nM |

system: trypsin; test: Phage TRF binding assay on immobilised biotinylated trypsin (monoclonal phage ELISA); details: EETI-II in 5-3 frame, value in brackets after clone name
Method: Phage display technology facilitates isolation of binders to any given target from large combinatorial repertoires based on proteins and peptides that can be presented on the surface of filamentous phage^105. In order to isolate functional knottin-antibody fusions from the KnotBody libraries multiple rounds of phage display selections on trypsin (cognate antigen for the EETI-II donor) were carried out. Phage particles were prepared by rescuing KnotBody libraries using trypsin cleavable helper phage ^102,106Two rounds of phage display selections were performed on 10 µg/ml biotinylated trypsin immobilised on Streptavidin (for Round-1) or Neutravidin (for round-2) coated Maxisorp™ immunotubes (Thermo Scientific, Cat No. 444202). In both rounds of selection, phage libraries were pre-incubated with streptavidin coated paramagnetic beads (Thermo Fisher Scientific, Cat. No. 11205D). These beads were removed prior to the addition the phage to the antigen tubes to limit the streptavidin binders entering the selection. Polyclonal phage preparations from round-2 selection outputs were analysed for trypsin binding using a time resolved fluorescence (TRF) binding assay. In this assay, polyclonal phage binding to biotinylated trypsin immobilised on neutravidin (Thermo Fisher Scientific, Cat. No 31000) coated Maxisorp™ plates (Thermo Scientific, Cat. No. 437111) was detected using a mouse anti-M13 antibody (GE Healthcare, Cat. No. 27-9420-01) followed by europium conjugated anti-mouse antibody (Perkin Elmer, Cat. No. AD0124).
In order to identify monoclonal KnotBodies with desired binding characteristics, 94 individual clones derived from 2 rounds of selection using EETI-II CDR1 or CDR2 libraries were picked into 96 well culture plates and phage were prepared from each clone. Methods for screening by monoclonal phage ELISA are known in the art^107. […] Clones with >3x binding signal above background were picked as positive clones and sequenced to identify unique clones. 14 and 42 unique binders were identified from EETI-II CDR1 and EETI-II CDR2 libraries respectively (Table 1). 18 binders from the EETI-II CDR2 library and 3 binders from the EETI-II-CDR1 library were chosen for further characterisation based on their VL and linker sequence diversity. These binders were assigned new clone identification numbers (Table 2).
The trypsin binding capability of EETI-II is attributed to proline (Pro3) and arginine (Arg4) residues present in its loop1 (GCPRILMRC; SEQ ID NO: 68). […] Monoclonal phage was prepared from the 21 selected clones and their mutant equivalents. […] Replacement of the trypsin-binding residues of EETI-II abolished the ability of all KnotBody clones to bind to trypsin (Table 3). In order to confirm that the loss of trypsin binding was not due to reduced expression or display of pIII fusion phage was prepared from 11 (randomly chosen) KnotBodies and their GlyAla variants were analysed on a western blot using an antibody which recognises the product of gene 3 (pIII) using an anti-pIII antibody (MoBiTec GmbH) (FIG. 6).
Bovine antibodies have been described with natural ultra-long VH CDR3s containing a solvent exposed double stranded antiparallel sheet approximately 20 A° in length (referred to as the stalk) presenting a folded domain stabilised by 3 disulfide bonds (referred to as the Knob)^10. Zhang and colleagues have shown that the Knob domains of these cow ultra-long VH CDR3 antibodies (ULVC-Ab) can be replaced with other folded proteins such as erythropoietin^13. In this example, we assess the ability of a cow ULVC-Ab to present functional knottin fusions on phage in comparison with a KnotBody. In order to create a Knottin-cow UCLA fusion, the sequence between the first and the last cysteines of the knob region of the Cow ULVC-Ab BLV1H12 was replaced with the sequence of the trypsin binding knottin; EETI-II (EETI-II cow ULVC-Ab). A gene fragment encoding this construct was synthesised (Integrated DNA technologies, Table 21). […]

| Molecule | ELISA signal from monoclonal phage ELISA |
| --- | --- |
| E03: KnotBody with alternative 5-3 framing of EETI-II, VL CDR2 (protein, E03 (82495), KnotBody with alternative 5-3 framing of EETI-II, VL CDR2) QSVLTQPPSVSEAPRQRVTITCSGSSSNIGNNAVNWYQQLPGKAPKLLIYAAGGCGPNGFCGSGSDGGVCPRILMRCKQDSDCLAGCGRNSGIPERFSGSKSGHTATLTISRVEAGDEADYYCQVWDSSSDHVLFGGGTKLTVLGQP | E03 (82495) |
| F07: KnotBody with alternative 5-3 framing of EETI-II, VL CDR2 (protein, F07 (72824), KnotBody with alternative 5-3 framing of EETI-II, VL CDR2) QSVLTQPPSVSEAPRQRVTITCSGSSSNIGNNAVNWYQQLPGKAPKLLIYAAGGCGPNGFCGSGSDGGVCPRILMRCKQDSDCLAGCGGQSGVPDRFSGSKSGTSASLAISRLQSEDEADYYCAAWDDSLNAYVFGTGTKVTVLGQP | F07 (72824) |
| E09: KnotBody with alternative 5-3 framing of EETI-II, VL CDR2 (protein, E09 (70274), KnotBody with alternative 5-3 framing of EETI-II, VL CDR2) QSVLTQPPSVSEAPRQRVTITCSGSSSNIGNNAVNWYQQLPGKAPKLLIYAAGGCGPNGFCGSGSDGGVCPRILMRCKQDSDCLAGCGTQSGIPERFSGSKSGTSASLAISGLRSEDEADYYCAAWDDSLRAYVFGTGTQLTVLGQP | E09 (70274) |
| F03: KnotBody with alternative 5-3 framing of EETI-II, VL CDR2 (protein, F03 (67972), KnotBody with alternative 5-3 framing of EETI-II, VL CDR2) QSVLTQPPSVSEAPRQRVTITCSGSSSNIGNNAVNWYQQLPGRAPKLLIYAAGGCGPNGFCGSGGDGGVCPRILMRCKQDSDCLAGCGAHSGIPERFSGSKSGTSASLAISGLRSEDEADYYCAAWDDSLNGWVFGGGTKVTVLGQP | F03 (67972) |
| C09: KnotBody with alternative 5-3 framing of EETI-II, VL CDR1 (protein, C09 (9820), KnotBody with alternative 5-3 framing of EETI-II, VL CDR1) QSVLTQPPSVSEAPRQRVTITCGGKRCGPNGFCGSGSDGGVCPRILMRCKQDSDCLAGCTSNWYQQKPGQAPVLVVQDDSVRPSGIPERFSGSNSGNTATLTISRVEAGDGADYYCQVWDISSDLGVFGGGTKLTVLGQP | C09 (9820) |
| E01: KnotBody with alternative 5-3 framing of EETI-II, VL CDR2 (protein, E01 (127988), KnotBody with alternative 5-3 framing of EETI-II, VL CDR2) QSVLTQPPSVSEAPRQRVTITCSGSSSNIGNNAVNWYQQLPGKAPKLLIYAAGGCGPNGFCGSGSDGGVCPRILMRCKQDSDCLAGCGIHSGVSDRFSDSKSGTSASLAISGLQSEDEADYYCAAWDDSLNGYVFGTGTKLTVLGQP | E01 (127988) |
| E08: KnotBody with alternative 5-3 framing of EETI-II, VL CDR2 (protein, E08 (121047), KnotBody with alternative 5-3 framing of EETI-II, VL CDR2) QSVLTQPPSVSEAPRQRVTITCSGSSSNIGNNAVNWYQQLPGKAPKLLIYAAGGCGPNGFCGSGSDGGVCPRILMRCKQDSDCLAGCGIQSGIPERFSGSKSGTSASLAISGLRSEDEADYYCAAWDDNLSGYVFGTGTKLTVLGQP | E08 (121047) |
| E05: KnotBody with alternative 5-3 framing of EETI-II, VL CDR2 (protein, E05 (118631), KnotBody with alternative 5-3 framing of EETI-II, VL CDR2) QSVLTQPPSVSEAPRQRVTITCSGSSSNIGNNAVNWYQQLPGKAPKLLIYAAGGCGPNGFCGSGSDGGVCPRILMRCKQDSDCLAGCGAQSGIPERFSGSKSGTSASLAISGLQSEDEAHYYCAAWDDSLNGYVFGTGTKVTVLGQP | E05 (118631) |
